From patent CN113480658A (SHENZHEN INNOVA NANOBODI CO LTD, dated 2021)

T1: 人附睾蛋白(HE4) (human, UniProt Q14508 31-124)
T1 construct: also called HE4抗原; 抗原
T1 sequence (looked up): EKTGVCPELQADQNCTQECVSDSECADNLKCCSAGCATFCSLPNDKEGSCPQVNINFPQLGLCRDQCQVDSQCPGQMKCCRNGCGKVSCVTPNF


Columns and labels:
人附睾蛋白(HE4) [1] = biological target: T1, 人附睾蛋白(HE4); assay: additive ELISA on HE4, 1G8 alone
人附睾蛋白(HE4) [2] = biological target: T1, 人附睾蛋白(HE4); assay: SPR, Biacore T100, 1:1 binding fit
人附睾蛋白(HE4) [3] = biological target: T1, 人附睾蛋白(HE4); assay: additive ELISA on HE4, 1D9 alone

Row | ELISA reading (2nd抗体) (人附睾蛋白(HE4) [1]) | Kd (人附睾蛋白(HE4) [2]) [pM] | ELISA reading (1st抗体) (人附睾蛋白(HE4) [3]) | Binder
1 | 0.481 |  |  | 纳米抗体1G8 (VHH) VHH: QVQLQESGGGLAQTGGSLRLSCVASGRTLDRYAIGWFRQAPGKEREFVAAISMSGTMTDYTDSVKGRFTISRDNAKNTVYLQMNSLKPDDTAVYCCAAGGRRGWGRALFAYDYWGQGTQVTVSS
2 |  | 11.9 | 0.286 | 纳米抗体1D9 (抗HE4单价纳米抗体) (VHH, CDR1 26-33, CDR2 51-58, CDR3 97-113); Expressed in E. coli from pMES4 and purified) VHH: QVQLQESGGGLVQPGGSLRLSCAASGPRFSSYGMGWFRQAPGKEREFVAAISMSGTMTDYTDSVKGRFTISRDNAKNTVYLQMNSLKPDDTAVYCCAAGGRRGWGRALFAYDYWGQGTQVTVSS
3 |  | 6.9 |  | 抗HE4二价纳米抗体1D9-LHC (VHH) VHH: QVQLQESGGGLVQPGGSLRLSCAASGPRFSSYGMGWFRQAPGKEREFVAAISMSGTMTDYTDSVKGRFTISRDNAKNTVYLQMNSLKPDDTAVYCCAAGGRRGWGRALFAYDYWGQGTQVTVSS
